Where no end group is shown, it is not given here.
Target: constitutively active truncated His-tagged WT calcineurin (6×His–CNAαWT:CNB) (Homo sapiens (Human),Homo sapiens …, UniProt Q08209,P63098)
Assay: His-tag pulldown + immunoblot

Sequence of constitutively active truncated His-tagged WT calcineurin (6×His–CNAαWT:CNB) (Q08209 1-392, one chain of several): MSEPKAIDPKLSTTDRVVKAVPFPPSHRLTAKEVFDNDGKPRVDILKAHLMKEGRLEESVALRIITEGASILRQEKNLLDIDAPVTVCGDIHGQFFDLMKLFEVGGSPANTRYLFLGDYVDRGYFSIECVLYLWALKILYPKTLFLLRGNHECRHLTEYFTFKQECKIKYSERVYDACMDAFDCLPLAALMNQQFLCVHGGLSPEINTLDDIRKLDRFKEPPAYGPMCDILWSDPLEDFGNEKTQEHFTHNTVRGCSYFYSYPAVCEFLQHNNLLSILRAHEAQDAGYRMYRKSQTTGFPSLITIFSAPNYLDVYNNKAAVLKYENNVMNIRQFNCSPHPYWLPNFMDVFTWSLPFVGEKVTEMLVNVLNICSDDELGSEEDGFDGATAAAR

KGELVPDVRISTIHDI (protein, also: GST-tagged fusion) [GST-tagged POC5 PxIxIT peptide (POC5 PDVRIS)]
binding result: binds
